In PMC5090064, “Coordinated regulation of the ESCRT-III component CHMP4C by the chromosomal passenger complex and centralspindlin during cytokinesis” (Open Biology, 2016):

Experiments:
[1] = target: MKLP1 (UniProt Q02241); assay: GFP-Trap pull-down, Flag western blot
[2] = target: T1, CPC mini-complex (Survivin full-length, Borealin full-length and INCENP 1–57) (UniProt Q53HL2 1-280; O15392 1-142; Q9NQS7 1-57); assay: atomic force microscopy; purified proteins on mica surfaces without lipid bilayers, imaged under fluid at room temperature; conditions: both partners purified
T1 construct: Borealin, full-length, TEV-cleavable His-tagged, pETM vector; Survivin, full-length, 3C-cleavable GFP-tagged, pRSET vector; INCENP residues 1–57 (methods; the results say the first 58 amino acids), untagged, pMCNcs vector; Results call the INCENP piece INCENP 1–58, methods 1–57; also called mini-CPC; copies: + +
T1 sequence (Q53HL2 whole entry, chain 1 of 3, the tested form may be a part): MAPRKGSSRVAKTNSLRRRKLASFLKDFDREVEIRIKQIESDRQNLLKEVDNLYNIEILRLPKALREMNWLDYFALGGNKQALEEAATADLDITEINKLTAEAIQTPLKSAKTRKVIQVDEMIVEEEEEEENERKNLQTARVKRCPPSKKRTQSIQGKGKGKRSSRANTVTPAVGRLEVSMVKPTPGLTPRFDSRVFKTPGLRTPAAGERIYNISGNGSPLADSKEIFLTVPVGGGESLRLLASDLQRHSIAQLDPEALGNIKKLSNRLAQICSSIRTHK
T1 sequence (O15392 whole entry, chain 2 of 3, the tested form may be a part): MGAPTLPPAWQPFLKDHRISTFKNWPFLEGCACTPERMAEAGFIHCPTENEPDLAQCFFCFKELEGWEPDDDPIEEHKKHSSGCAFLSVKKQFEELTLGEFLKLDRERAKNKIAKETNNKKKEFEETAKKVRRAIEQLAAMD
T1 sequence (Q9NQS7 1-57, chain 3 of 3): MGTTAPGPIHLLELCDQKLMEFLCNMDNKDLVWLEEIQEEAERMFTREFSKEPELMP

| binding against the reference ([1]; reference: S210A, sites S214,S215) | binding against the reference ([1]; reference: wild type, sites S210,S214,S215) | Molecule | binding result [2] |
| --- | --- | --- | --- |
| stronger | stronger | CHMP4C (from UniProt Q96CF2) StripleA (S210A, S214A, S215A) |  |
|  |  | CHMP4C (purified recombinant, full-length) (natural protein, human, UniProt Q96CF2 1-233, looked up, CHMP4C, human, full-length ORF cloned into pET-His6-msfGFP as a TEV-cleavable His-tagged protein; also called His6-GFP::CHMP4C; purified CHMP4C; source: E. coli BL21 Gold, purified (Ni-NTA, TEV cleavage, Superdex 200); not shown: His6, N-terminal, cleaved) MSKLGKFFKGGGSSKSRAAPSPQEALVRLRETEEMLGKKQEYLENRIQREIALAKKHGTQNKRAALQALKRKKRFEKQLTQIDGTLSTIEFQREALENSHTNTEVLRNMGFAAKAMKSVHENMDLNKIDDLMQEITEQQDIAQEISEAFSQRVGFGDDFDEDELMAELEELEQEELNKKMTNIRLPNVPSSSLPAQPNRKPGMSSTARRSRAASSQRAEEEDDDIKQLAAWAT | binds |
